Laboratory results from patent US20100266587A1, “Compositions and Methods to Treat Acute Myelogenous Leukemia” (BIOGEN IDEC MA INC., priority 2009, published 2010).

Experiments:
[1] = test system: VLA-4 and VLA-5 adhesion to fibronectin; conditions: cited from earlier work
[2] = test system: fibronectin-dependent cell adhesion; conditions: cited from earlier work
P-STAT3 = assay: Western blot of coculture-induced survival signaling; assay type: cell-based; conditions: cells cocultured with BMSCs, 30 minutes (HL60) or 4 hr (U266)
Procedure: FIG. 7 is a panel of Western blots assaying for P-STAT3, STAT3, P-JNK, JNK, P-MAPK, and MAPK levels in HL60, KG1 or U266 cells grown in suspension or cocultured with BMSCs and natalizumab, as indicated, for 30 minutes (HL60) or 4 hours (U266).
HL60, KG1 or U266 cells were grown in suspension or coculture with BMSCs and natalizumab, as indicated, for 30 minutes (HL60) or 4 hr (U266), and then the cells were separated from BMSCs, and processed for Western blot analysis to determine levels of P-STAT3, STAT3, P-JNK, JNK, P-MAPK, and MAPK (FIG. 7).

MM cell line U226 = assay: Adhesion mediated drug resistance, MM cells, melphalan; assay type: cell-based
Procedure: (§1) FIGS. 6A-6D are graphs showing the results of natalizumab on cell adhesion mediated drug resistance. FIG. 6A depicts the percentage of viable HL60 cells remaining after the cells were cocultured for 24 hours with (▪) or without (□) BMSC, then exposed to the chemotherapy drug AraC (cytarabine) for 24 hours. FIG. 6B depicts the percentage of apoptotic cells (Annexin V+, 7AAD) after cocultured HL60 cells were incubated with natalizumab or isotype control antibody for 4 hr., and then exposed to an effective AraC dose as determined from FIG. 6A for 24 hours. FIGS. 6C and 6D show the results of similar experiments conducted with U266 cells exposed to melphalan.

AML cell line HL60 = assay: Adhesion mediated drug resistance, HL60 cocultured with BMSC, ara-C, apoptosis; assay type: cell-based; conditions: natalizumab combined with ara-C 10 μM, 24 hours
Procedure: as §1
Culturing the AML cell line HL60 in the presence of BMSC conferred a protective advantage to the cells when treated with the chemotherapeutic agent ara-C, as shown in FIG. 6A. Cells were cultured for 24 hours with (▴) or without (□) BMSC, then exposed to the chemotherapy drug AraC (cytarabine) for 24 hours (FIG. 6A). Cell viability was enhanced by the presence of BMSC.

[3] = test system: tumor cell binding to VLA-4 ligands; assay: Maximally attainable inhibition of tumor cell binding to VLA-4 ligands at saturating antibody; assay type: cell-based; conditions: saturating levels of natalizumab (20 μg/mL) vs isotype control
Procedure: FIGS. 3A and 3B are graphs showing the effect of natalizumab on HL60 and KG1 AML tumor cell adhesion to VLA-4 ligands fibronectin (• FN), vascular adhesion molecule-1-Ig fusion protein (▪ VCAM-Ig), or bone marrow stromal cells (▴ BMSC), in the presence of natalizumab or an isotype control antibody in serial dilutions starting at 20 μg/ml. FIGS. 3C and 3D show inhibition of binding of HL60 and KG1 AML cells to VLA-4 ligands in the presence saturating levels of natalizumab (20 μg/mL) (solid bars) or isotype control (clear bars).
(§2) FIGS. 4A and 4B are graphs showing the effect of natalizumab on H929 and U266 mM tumor cell adhesion to VLA-4 ligands fibronectin (• FN), vascular adhesion molecule-1-Ig fusion protein (▪ VCAM-Ig), or bone marrow stromal cells (▴ BMSC). Adhesion was assayed in the presence of natalizumab or an isotype control antibody in serial dilutions starting at 20 μg/ml.
as §2, with “5A” for “4A”, “5B” for “4B”, “Mec1” for “H929”, “JM1 CLL” for “U266 mM”
Experiments were conducted to test whether a VLA-4 antagonist can inhibit binding of tumor cells to a VLA-4 ligand. […]

[4] = target: T1, VLA-4 on tumor cell lines (Homo sapiens, UniProt P13612); assay: Binding of natalizumab to AML, CLL and MM tumor cell lines by flow cytometry (all lines)
T1 construct: VLA-4 expression was observed on all cell lines tested; endogenous in cells; host or cells: HL60, KG1 (AML); U266, H929 (MM); Mec1, JM1 (CLL)
Procedure: FIG. 2 is a graph depicting binding of natalizumab to VLA-4 on tumor cell lines as measured by flow cytometry.
(§3) Flow cytometry experiments were performed to assess the level of VLA-4 expression on tumor cell lines, and VLA-4 expression was observed on all cell lines tested (FIG. 1).).

[5] = target: T2, VLA-4 (alpha4beta1 integrin) on hematologic tumor cell lines (UniProt P13612 34-1032; P05556 21-798); assay: inhibition of U266 cell adhesion to wells coated with fibronectin (FN)
T2 construct: whole, on cells; also called a4β1 integrin
Procedure: as §2
(§4) Experiments were conducted to test whether a VLA-4 antagonist can inhibit binding of tumor cells to a VLA-4 ligand. Cell lines were allowed to adhere to wells coated with fibronectin (• FN), vascular adhesion molecule-1-Ig fusion protein (▪ VCAM-Ig), or bone marrow stromal cells (▴ BMSC), in the presence of increasing concentrations of natalizumab or isotype control antibody.

[6] = target: T2, VLA-4 (alpha4beta1 integrin) on …; assay: flow cytometry, binding to U266 (MM) cells
Procedure: as §3

[7] = target: T2, VLA-4 (alpha4beta1 integrin) on …; assay: flow cytometry, binding to JM1 (CLL) cells
Procedure: as §3

[8] = target: T2, VLA-4 (alpha4beta1 integrin) on …; assay: flow cytometry, binding to H929 (MM) cells
Procedure: as §3

[9] = target: T2, VLA-4 (alpha4beta1 integrin) on …; assay: inhibition of U266 cell adhesion to wells coated with VCAM-Ig
Procedure: as §2, §4

[10] = target: T2, VLA-4 (alpha4beta1 integrin) on …; assay: inhibition of Mec1 cell adhesion to wells coated with VCAM-Ig
Procedure: as §2, with “5A” for “4A”, “5B” for “4B”, “Mec1” for “H929”, “JM1 CLL” for “U266 mM”
as §4

[11] = target: T2, VLA-4 (alpha4beta1 integrin) on …; assay: inhibition of HL60 cell adhesion to wells coated with fibronectin (FN)
Procedure: as §4

[12] = target: T2, VLA-4 (alpha4beta1 integrin) on …; assay: flow cytometry, binding to Mec1 (CLL) cells
Procedure: as §3

[13] = target: T2, VLA-4 (alpha4beta1 integrin) on …; assay: inhibition of JM1 cell adhesion to wells coated with VCAM-Ig
Procedure: as §2, with “5A” for “4A”, “5B” for “4B”, “Mec1” for “H929”, “JM1 CLL” for “U266 mM”
as §4

[14] = target: T2, VLA-4 (alpha4beta1 integrin) on …; assay: inhibition of H929 cell adhesion to wells coated with VCAM-Ig
Procedure: as §2, §4

[15] = target: T2, VLA-4 (alpha4beta1 integrin) on …; assay: inhibition of H929 cell adhesion to wells coated with fibronectin (FN)
Procedure: as §2, §4

[16] = target: T2, VLA-4 (alpha4beta1 integrin) on …; assay: inhibition of Mec1 cell adhesion to wells coated with fibronectin (FN)
Procedure: as §2, with “5A” for “4A”, “5B” for “4B”, “Mec1” for “H929”, “JM1 CLL” for “U266 mM”
as §4

[17] = target: T2, VLA-4 (alpha4beta1 integrin) on …; assay: flow cytometry, binding to HL60 (AML) cells
Procedure: as §3

[18] = target: T2, VLA-4 (alpha4beta1 integrin) on …; assay: inhibition of JM1 cell adhesion to wells coated with fibronectin (FN)
Procedure: as §2, with “5A” for “4A”, “5B” for “4B”, “Mec1” for “H929”, “JM1 CLL” for “U266 mM”
as §4

[19] = target: T2, VLA-4 (alpha4beta1 integrin) on …; assay: cell-based or functional assay
[20] = target: T2, VLA-4 (alpha4beta1 integrin) on …; assay: flow cytometry, binding to KG1 (AML) cells
Procedure: as §3

[21] = target: T2, VLA-4 (alpha4beta1 integrin) on …; assay: inhibition of KG1 cell adhesion to wells coated with fibronectin (FN)
Procedure: as §4

[22] = target: T2, VLA-4 (alpha4beta1 integrin) on …; assay: inhibition of HL60 cell adhesion to wells coated with VCAM-Ig
Procedure: as §4

[23] = target: T2, VLA-4 (alpha4beta1 integrin) on …; assay: inhibition of KG1 cell adhesion to wells coated with VCAM-Ig
Procedure: as §4

Arg-Cys-Asp-TPro-Cys
Inhibition of VLA-4 and VLA-5 adhesion to fibronectin [1]: can inhibit both VLA-4 and VLA-5 adhesion to fibronectin

Glu-Ile-Leu-Asp-Val (EILDV; printed: Glu-Ile-Leu-Asp-Val) [pentapeptide from the CS-1 region of fibronectin]
Inhibitory activity against fibronectin-dependent cell adhesion [2]: possessed inhibitory activity

Glu-Ile-Leu-Asp-Val-Pro-Ser-Thr
Inhibitory activity against fibronectin-dependent cell adhesion [2]: possessed inhibitory activity

Leu-Asp-Val-Pro-Ser (LDVPS; printed: Leu-Asp-Val-Pro-Ser) [pentapeptide from the CS-1 region of fibronectin]
Inhibitory activity against fibronectin-dependent cell adhesion [2]: possessed inhibitory activity

Natalizumab
Coculture-induced survival signaling through P-STAT3 (P-STAT3): can be inhibited | Effect on cell adhesion mediated resistance to melphalan (MM cell line U226): did not have a cytoprotective effect | Percentage of cells undergoing apoptosis (AML cell line HL60): increase in the percentage of cells undergoing apoptosis | Inhibition of tumor cell binding to VLA-4 ligands at saturating levels [3]: inhibit binding in all cell types assayed | Binding to AML, CLL and MM tumor cell lines [4]: saturable binding was observed

B1: natalizumab (antibody, human IgG4, kappa, V domains shown)
VH: QVQLVQSGAEVKKPGASVKVSCKASGFNIKDTYIHWVRQAPGQRLEWMGRIDPANGYTKYDPKFQGRVTITADTSASTAYMELSSLRSEDTAVYYCAREGYYGNYGVYAMDYWGQGTLVTVSS
VL: DIQMTQSPSSLSASVGDRVTITCKTSQDINKYMAWYQQTPGKAPRLLIHYTSALQPGIPSRFSGSGSGRDYTFTISSLQPEDIATYYCLQYDNLWTFGQGTKVEIKR
modifications: Glutamine 1 cyclized to pyroGlutamic Acid; C-terminal Lysine is removed posttranslationally
notes: Humanized version of murine monoclonal antibody 21.6; also called AN100226; TYSABRI
IC50 [5]: 400 pM | EC50 [6]: 300 pM | EC50 [7]: 280 pM | EC50 [8]: 800 pM | IC50 [9]: 260 pM | IC50 [10]: 220 pM | IC50 [11]: 500 pM | EC50 [12]: 110 pM | IC50 [13]: 190 pM | IC50 [14]: 450 pM | IC50 [15]: 400 pM | IC50 [16]: 390 pM | EC50 [17]: 190 pM | IC50 [18]: 11600 pM | IC50 (nM) of inhibition of H929 (MM) cell adhesion to bone marrow stromal cells (BMSC) [19]: 1.74 nM | IC50 (nM) of inhibition of HL60 (AML) cell adhesion to bone marrow stromal cells (BMSC) [19]: 13.7 nM | IC50 (nM) of inhibition of U266 (MM) cell adhesion to bone marrow stromal cells (BMSC) [19]: 0.53 nM | EC50 [20]: 220 pM | IC50 [21]: 100 pM | IC50 [22]: 920 pM | IC50 [23]: 190 pM
